Data as given in patent US20250262210A1 (TRUSTEES OF COLUMBIA UNIVERSITY IN THE CITY OF NEW YORK, published 2025).

Columns and labels:
Test in all cases: IP/MS, LZTR1 wild type-FLAG, U87
[1] = target: T1, RNF123 (human, UniProt Q5XPI4 2-1314, limits assumed)
T1 sequence (looked up): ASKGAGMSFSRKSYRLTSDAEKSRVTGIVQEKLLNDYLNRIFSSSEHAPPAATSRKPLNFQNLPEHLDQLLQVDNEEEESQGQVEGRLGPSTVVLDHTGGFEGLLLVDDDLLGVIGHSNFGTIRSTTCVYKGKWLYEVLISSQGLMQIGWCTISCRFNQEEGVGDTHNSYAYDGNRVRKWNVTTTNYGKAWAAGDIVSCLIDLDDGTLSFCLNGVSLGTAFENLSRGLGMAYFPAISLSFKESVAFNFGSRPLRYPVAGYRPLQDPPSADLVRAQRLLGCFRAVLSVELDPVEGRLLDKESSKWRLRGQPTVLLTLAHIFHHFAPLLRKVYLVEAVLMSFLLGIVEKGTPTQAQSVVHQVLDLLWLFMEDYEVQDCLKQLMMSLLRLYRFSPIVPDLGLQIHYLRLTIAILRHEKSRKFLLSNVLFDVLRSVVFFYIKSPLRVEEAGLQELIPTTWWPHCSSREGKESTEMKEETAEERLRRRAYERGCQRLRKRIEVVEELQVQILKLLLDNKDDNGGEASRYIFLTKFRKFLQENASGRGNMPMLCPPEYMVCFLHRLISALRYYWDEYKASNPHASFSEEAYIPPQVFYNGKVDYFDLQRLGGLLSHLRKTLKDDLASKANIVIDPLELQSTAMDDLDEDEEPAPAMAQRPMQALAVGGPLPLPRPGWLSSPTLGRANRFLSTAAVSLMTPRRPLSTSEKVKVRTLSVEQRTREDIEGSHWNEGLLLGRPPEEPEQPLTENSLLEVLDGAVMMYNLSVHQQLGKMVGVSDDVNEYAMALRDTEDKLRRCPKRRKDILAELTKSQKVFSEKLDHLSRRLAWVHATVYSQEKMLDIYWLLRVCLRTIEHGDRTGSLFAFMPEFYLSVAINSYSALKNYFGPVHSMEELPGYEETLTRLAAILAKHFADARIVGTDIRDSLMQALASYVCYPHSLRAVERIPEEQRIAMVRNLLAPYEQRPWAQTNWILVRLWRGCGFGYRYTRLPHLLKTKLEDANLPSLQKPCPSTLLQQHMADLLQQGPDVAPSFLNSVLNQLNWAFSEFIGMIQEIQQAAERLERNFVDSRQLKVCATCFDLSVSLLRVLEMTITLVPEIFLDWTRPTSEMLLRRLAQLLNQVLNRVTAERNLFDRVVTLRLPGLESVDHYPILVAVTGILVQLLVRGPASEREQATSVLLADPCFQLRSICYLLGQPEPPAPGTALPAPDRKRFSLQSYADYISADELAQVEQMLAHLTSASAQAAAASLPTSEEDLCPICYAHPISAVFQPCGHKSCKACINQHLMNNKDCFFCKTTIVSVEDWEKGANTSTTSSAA
Outline: (§1)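 Extracted peptides in 3% acetonitrile/0.1% formic acid ran on a 50 cm C18 column into an Orbitrap Fusion, with MaxQuant identification and spectral counting.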

[2] = target: RUSC2 (human, UniProt Q8N2Y8 1-1516)
RUSC2, sequence (Q8N2Y8 whole entry): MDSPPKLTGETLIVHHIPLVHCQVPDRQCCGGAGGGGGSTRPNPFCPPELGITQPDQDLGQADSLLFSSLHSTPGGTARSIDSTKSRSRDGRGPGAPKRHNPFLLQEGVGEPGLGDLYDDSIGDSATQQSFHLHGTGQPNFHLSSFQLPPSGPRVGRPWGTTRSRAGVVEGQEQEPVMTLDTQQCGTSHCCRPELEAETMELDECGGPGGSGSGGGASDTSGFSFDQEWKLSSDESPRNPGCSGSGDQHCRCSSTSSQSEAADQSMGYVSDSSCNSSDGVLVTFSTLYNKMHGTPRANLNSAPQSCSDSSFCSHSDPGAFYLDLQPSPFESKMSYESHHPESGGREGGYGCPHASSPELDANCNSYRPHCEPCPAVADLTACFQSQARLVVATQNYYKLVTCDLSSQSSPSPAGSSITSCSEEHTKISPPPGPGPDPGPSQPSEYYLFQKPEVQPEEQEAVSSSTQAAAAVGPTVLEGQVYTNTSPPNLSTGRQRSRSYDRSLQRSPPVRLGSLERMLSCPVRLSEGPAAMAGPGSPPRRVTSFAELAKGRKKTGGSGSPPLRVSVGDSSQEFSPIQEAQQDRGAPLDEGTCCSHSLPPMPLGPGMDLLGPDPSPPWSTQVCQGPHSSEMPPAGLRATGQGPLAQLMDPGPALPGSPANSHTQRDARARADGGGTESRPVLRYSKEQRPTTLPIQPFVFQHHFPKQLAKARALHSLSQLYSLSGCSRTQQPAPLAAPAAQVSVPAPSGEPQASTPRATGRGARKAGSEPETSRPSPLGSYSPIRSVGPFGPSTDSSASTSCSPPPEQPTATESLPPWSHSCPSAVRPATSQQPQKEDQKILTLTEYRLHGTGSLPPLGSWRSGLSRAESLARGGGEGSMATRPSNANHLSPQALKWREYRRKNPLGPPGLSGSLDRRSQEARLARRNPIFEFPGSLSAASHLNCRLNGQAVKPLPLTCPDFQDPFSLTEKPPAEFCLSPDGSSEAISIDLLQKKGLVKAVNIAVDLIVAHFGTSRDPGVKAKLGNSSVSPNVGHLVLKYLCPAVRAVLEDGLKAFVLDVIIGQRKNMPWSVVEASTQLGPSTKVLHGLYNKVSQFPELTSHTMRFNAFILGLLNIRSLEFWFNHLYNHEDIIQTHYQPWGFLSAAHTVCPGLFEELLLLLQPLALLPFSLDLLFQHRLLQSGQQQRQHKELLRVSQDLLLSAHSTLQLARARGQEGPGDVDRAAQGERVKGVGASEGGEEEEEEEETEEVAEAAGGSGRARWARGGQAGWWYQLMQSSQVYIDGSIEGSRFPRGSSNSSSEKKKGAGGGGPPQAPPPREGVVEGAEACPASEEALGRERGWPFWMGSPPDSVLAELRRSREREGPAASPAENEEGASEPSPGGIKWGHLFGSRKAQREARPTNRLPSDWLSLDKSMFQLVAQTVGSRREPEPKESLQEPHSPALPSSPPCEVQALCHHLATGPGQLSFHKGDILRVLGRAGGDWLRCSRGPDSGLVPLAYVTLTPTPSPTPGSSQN
Outline: as §1

[3] = target: T2, USP4 (human, UniProt Q13107 1-963, limits assumed)
T2 sequence (looked up): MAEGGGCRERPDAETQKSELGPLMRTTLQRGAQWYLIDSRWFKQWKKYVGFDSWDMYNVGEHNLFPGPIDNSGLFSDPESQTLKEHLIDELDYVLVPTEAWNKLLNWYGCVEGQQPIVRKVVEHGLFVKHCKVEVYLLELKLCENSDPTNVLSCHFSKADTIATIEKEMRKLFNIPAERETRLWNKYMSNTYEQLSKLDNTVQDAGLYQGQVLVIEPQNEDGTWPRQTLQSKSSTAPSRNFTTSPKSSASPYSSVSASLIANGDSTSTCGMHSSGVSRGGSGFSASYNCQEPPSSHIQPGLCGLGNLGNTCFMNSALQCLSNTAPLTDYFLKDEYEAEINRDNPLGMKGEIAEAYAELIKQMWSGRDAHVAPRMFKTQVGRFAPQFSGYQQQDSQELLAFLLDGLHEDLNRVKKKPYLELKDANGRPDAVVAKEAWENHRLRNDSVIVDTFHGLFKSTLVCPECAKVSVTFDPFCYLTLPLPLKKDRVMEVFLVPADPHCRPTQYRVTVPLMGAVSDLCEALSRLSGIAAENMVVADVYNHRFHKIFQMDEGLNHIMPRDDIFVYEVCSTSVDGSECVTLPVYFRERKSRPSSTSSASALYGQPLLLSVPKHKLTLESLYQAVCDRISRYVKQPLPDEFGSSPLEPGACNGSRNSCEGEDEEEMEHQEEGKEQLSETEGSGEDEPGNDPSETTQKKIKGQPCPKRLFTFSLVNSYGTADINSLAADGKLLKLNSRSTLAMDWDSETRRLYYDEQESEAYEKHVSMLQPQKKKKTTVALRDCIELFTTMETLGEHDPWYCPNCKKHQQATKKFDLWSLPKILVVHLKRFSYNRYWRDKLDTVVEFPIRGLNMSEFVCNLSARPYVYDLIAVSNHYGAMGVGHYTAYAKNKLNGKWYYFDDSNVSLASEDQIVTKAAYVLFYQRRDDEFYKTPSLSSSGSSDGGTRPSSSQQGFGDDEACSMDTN
Outline: as §1

binding result [1]: binds
binding result [2]: binds
binding result [3]: binds
B1: LZTR1-FLAG (other, human, UniProt Q8N653 1-840, looked up)
chain: MAGPGSTGGQIGAAALAGGARSKVAPSVDFDHSCSDSVEYLTLNFGPFETVHRWRRLPPCDEFVGARRSKHTVVAYKDAIYVFGGDNGKTMLNDLLRFDVKDCSWCRAFTTGTPPAPRYHHSAVVYGSSMFVFGGYTGDIYSNSNLKNKNDLFEYKFATGQWTEWKIEGRLPVARSAHGATVYSDKLWIFAGYDGNARLNDMWTIGLQDRELTCWEEVAQSGEIPPSCCNFPVAVCRDKMFVFSGQSGAKITNNLFQFEFKDKTWTRIPTEHLLRGSPPPPQRRYGHTMVAFDRHLYVFGGAADNTLPNELHCYDVDFQTWEVVQPSSDSEVGGAEVPERACASEEVPTLTYEERVGFKKSRDVFGLDFGTTSAKQPTQPASELPSGRLFHAAAVISDAMYIFGGTVDNNIRSGEMYRFQFSCYPKCTLHEDYGRLWESRQFCDVEFVLGEKEECVQGHVAIVTARSRWLRRKITQARERLAQKLEQEAAPVPREAPGVAAGGARPPLLHVAIREAEARPFEVLMQFLYTDKIKYPRKGHVEDVLLIMDVYKLALSFQLCRLEQLCRQYIEASVDLQNVLVVCESAARLQLSQLKEHCLNFVVKESHFNQVIMMKEFERLSSPLIVEIVRRKQQPPPRTPLDQPVDIGTSLIQDMKAYLEGAGAEFCDITLLLDGHPRPAHKAILAARSSYFEAMFRSFMPEDGQVNISIGEMVPSRQAFESMLRYIYYGEVNMPPEDSLYLFAAPYYYGFYNNRLQAYCKQNLEMNVTVQNVLQILEAADKTQALDMKRHCLHIIVHQFTKVSKLPTLRSLSQQLLLDIIDSLASHISDKQCAELGADI
notes: Expressed in HEK 293T, HeLa or U87 cells; used as cell lysate; also called LZTR1 wild type-FLAG; LZTR1 WT; not shown: FLAG tag at the C-terminus
